# Assay results: patent US20160228506A1, “Compositions and Formulations for Prevention and Reduction of Tumorigenesis, Cancer Cell Proliferation and Invasion, and Methods of Production and Use Thereof in Cancer Treatment” (PRONUTRIA, INC., priority 2013, published 2016)
# Changes are numbered by the printed parent chain.
# B1: SEQID-00098: nutritive polypeptide (protein, listed as Lactococcus lactis)
# chain: MAVFEKVQDIIVDELGKEKEEVTLETSFEELDADSLDLFQIINDIEDEFDVEVDTEADMKTVADLVKYVENNK
# B2: SEQID-00099: nutritive polypeptide (protein, listed as Thermosynechococcus elongatus)
# chain: MNQSEILEKVKAIVADQLSVDPEKVVPEASFAEDLNADSLDSVELIMALEEEFGVEIPDEEAEKLKTVQDVLDFINNKVAA
# B3: SEQID-00102: nutritive polypeptide (protein, listed as Lactobacillus johnsonii)
# chain: MTEEEIFNKIADMISERFSIDRDKITKDLNFQNDLDADSIDFVELVMDLEDTFGAEIPDDDAEKLQTVGEAVEYIKSHQN
# B4: SEQID-00220: nutritive polypeptide (protein, listed as Bos taurus)
# chain: DTKKKVDDDLGTIENLEEAKKKLLKDVEVLSQRLEEKALAYDKLEKTKTRLQQELDDLLVDLDHQ
# B5: SEQID-00302: nutritive polypeptide (protein)
# chain: MAKKTVANLSASELSGKKVLVRADFNVPLDNGSISDDTRIRAALPTIQDLTSKGAKVILSSHFGRPQGQVVESMRLTPVAARLSELLGKTVKKCDDCIGEEVAVAVGAMSDGDVLLLENVRFHAAEEKNDPEFAKQLASVADLYVNDAFGTAHRAHASTEGVTKYLSPCVAGYLIEKELQFLQGAIESPQRPLAAIIGGSKVSSKIGVIEALLDKCDKLLLGGGMIFTFYKARGLSVGNSLVEEDKLELAKSLEAKAKEKGVTMLLPTDVVLADKFAADADSQTVSVEAIPDGWMGLDIGPDSVKVFQEALGDCKTVLWNGPMGVFEFEKFAAGTRAIAQTLAELTSTGTTTIIGGGDSVAAVEQLNLGEKMSHISTGGGASLELLEGKQLPGIVALDDA
# modifications: Arthrospira platensis C1
# notes: nutritive polypeptide
# B6: SEQID-00305: nutritive polypeptide (protein, listed as Bos taurus)
# chain: MPHQYPALTPEQKKELCDIAHRIVAPGKGILAADESTGSIAKRLQSIGTENTEENRRFYRQLLLTADDRVNPCIGGVILFHETLYQKADDGRPFPQVIKAKGGVVGIKVDKGVVPLAGTNGETTTQGLDGLSERCAQYKKDGADFAKWRCVLKIGEHTPSSLAIMENANVLARYASICQQNGIVPIVEPEILPDGDHDLKRCQYVTEKVLAAVYKALSDHHIYLEGTLLKPNMVTPGHACTQKYSHEEIAMATVTALRRTVPPAVPGITFLSGGQSEEEASINLNAINKCPLLKPWALTFSYGRALQASALKAWGGKKENLKAAQEEYVKRALANSLACQGKYTPSGKAGAAASESLFISNHAY
# B7: SEQID-00420: nutritive polypeptide (protein)
# chain: AAAPLEKRSCTFTSASAAKSGKSSCSTITLDNIAVPAGETLDLTGLKKGTTVIFEGETTFGYKEWKGPLISMSGTDITVKQASGAKINCDGARWWDGKGSNGGKTKPKFFQAHKLDQSSITGLKVYNTPVQGFSILADHLTITDVTIDNSAGTSKGHNTDAFDIGQSTYITIDGATVYNQDDCLAINSGEHITFTNGYCDGGHGLSIGSIGGRSDNTVNDVTISNSKVLNSQNGVRIKTIYGKTGTVENVKFEDITLSDISKYGIVVEQDYENGSPTGTPTNGVKVEDITFKKVTGSVKSSGTDIYILCGSGSCSNWTWSGVDVTGGKKSSKCKNVPSGASCSD
# modifications: Aspergillus niger; source: /note="strain CBS 513.88 / FGSC A1513"
# B8: SEQID-00546: protein of the 168 nutritive polypeptide library (protein, listed as Saccharomyces cerevisiae)
# chain: MCSAGGIRRPIQIEEFKTAISGMSDMELAQIKTEIENSINHLQRSNARLGKYIAKLEGADDRLEADDSDDLENIDSGDLALYKDSVRENEIVLNNYNERVDALEQETVYRKTGHGKSKHEVEAKDNTNKGPDVDMDNSNVDVVTPNSIFI
# modifications: source: /note="strain ATCC 204508 / S288c"
# notes: protein of the 168 nutritive polypeptide library
# B9: SEQID-00598: nutritive polypeptide naturally produced in Flaxseed, recombinantly expressed in E. coli (protein, listed as Linum usitatissimum)
# chain: MSRRCPGKNAWPELVGKSGNMAAATVERENRNVHAIVLKEGSAMTKDFRCDRVWVIVNDHGVVTSVPHIT
# B10: SEQID-00601: protein of the 168 nutritive polypeptide library (protein, listed as Agaricus bisporus)
# chain: MTRSWEPGTQYNLGDVVEYNGDEYKIIQAHSSQSDWAPDRTPALWGKLPHRHHQQGQYQQQQECQPQQPQKTCYDYGKQEQAPQHSDSKEKKNWFGNITESQKQALEVGGGVALGAGLLGGAFAAWKHHQHKEEAHDSFEAWANAARSRAEEFRAKGPQGPATWVYNEGKHIPEQAILVGTEHNWNLYICRAYCDGGVQIGKASDVFKKGAVIGYKEDEHHLDKYEILLGDMRGLKWVQTGNSLDLASLGATPVEGGYENDHTRLYIARAFHKGAKHPGKVSERLDGAYIPYDGKEKCVKEYEVLCYL
# modifications: source: /note="var. bisporus"; source: /note="strain H97 / ATCC MYA-4626 / FGSC 10389"
# notes: as for B8
# B11: SEQID-00606: protein of the 168 nutritive polypeptide library (protein)
# chain: MASEGDHHHHHHHHQDHDHHHHDHDHHHHHDGEGETNSWVGKDGKVYHSHDGLAPHSHEPIYSPGYFTRRAPPLLNRNFNERAFTVGIGGPVGTGKTALMLALCELLRENYSLAAVTNDIFTKEDGEFLVKHKALPEERIRAVETGGCPHAAIREDISINLGPLEELSNLFKADILLCESGGDNLAANFSRELADYIIYIIDVSGGDKIPRKGGPGITQADLLVINKTDLAPAIGADLAVMQRDALRMRDGGPFVFAQVKHKIGVEEIGNLVLQAWEAATGNKRH
# modifications: Glycine max
# notes: as for B8
# B12: SEQID-00610: protein of the 168 nutritive polypeptide library (protein, listed as Saccharomyces cerevisiae)
# chain: MVLEATVLVIDNSEYSRNGDFPRTRFEAQIDSVEFIFQAKRNSNPENTVGLISGAGANPRVLSTFTAEFGKILAGLHDTQIEGKLHMATALQIAQLTLKHRQNKVQHQRIVAFVCSPISDSRDELIRLAKTLKKNNVAVDIINFGEIEQNTELLDEFIAAVNNPQEETSHLLTVTPGPRLLYENIASSPIILEEGSSGMGAFGGSGGDSDANGTFMDFGVDPSMDPELAMALRLSMEEEQQRQERLRQQQQQQDQPEQSEQPEQHQDK
# modifications: source: /note="strain ATCC 204508 / S288c"
# notes: as for B8
# B13: SEQID-00647: protein of the 168 nutritive polypeptide library (protein)
# chain: MALSKIEEARQLNDDDLSEQILEIKKQLANLRLLKATGRLEKPHEIRHTRHRLSQLLTVERERQLPNQSPA
# modifications: Arthrospira platensis C1
# notes: as for B8
# B14: SEQID-00672 (BS): nutritive polypeptide (protein, listed as Saccharomyces cerevisiae)
# chain: MSSSESIRMVLIGPPGAGKGTQAPNLQERFHAAHLATGDMLRSQIAKGTQLGLEAKKIMDQGGLVSDDIMVNMIKDELTNNPACKNGFILDGFPRTIPQAEKLDQMLKEQGTPLEKAIELKVDDELLVARITGRLIHPASGRSYHKIFNPPKEDMKDDVTGEALVQRSDDNADALKKRLAAYHAQTEPIVDFYKKTGIWAGVDASQPPATVWADILNKLGKD
# modifications: source: /note="strain ATCC 204508 / S288c"
# B15: SEQID-00678 (BS): nutritive polypeptide (protein, listed as Saccharomyces cerevisiae)
# chain: B14 chain with R42K
# modifications: source: /note="strain ATCC 204508 / S288c"
# Assay: Intact half-life during simulated gastric fluid (SGF) digestion
# Conditions: SGF pH 1.5, pepsin:polypeptide 1:20 w/w, 37° C.; intact protein
# Method: In this experiment the nutritive polypeptide was exposed to a series of proteases that are active in the stomach (pepsin) and intestine (trypsin and chymotrypsin), and the presence of intact protein was measured over time. Specifically, the nutritive polypeptide was first treated at a concentration of 2 g/L with simulated gastric fluid (SGF) (0.03 M NaCl, titrated with HCl to pH 1.5 with a final pepsin:polypeptide ratio of 1:20 w/w) at 37° C. Time points were sampled from the reaction and quenched by addition of 0.2 M Na2CO3. […] Time points were sampled from the reaction and quenched by addition of Trypsin/Chymotrypsin Inhibitor (Sigma) solution until 240 min.
# Time point samples were analyzed for intact protein by chip electrophoresis, polyacrylamide gel electrophoresis, or western blot. For chip electrophoresis (Labchip GX II), samples were analyzed using a HT Low MW Protein Express LabChip® Kit (following the manufacturer's protocol). A protein ladder was loaded every 12 samples for molecular weight determination (kDa) and quantification. For polyacrylamide gel electrophoresis, samples (1 μg) were separated on a NuPAGE® Novex® Bis-Tris Precast gel (Life Technologies) according to the manufacturer's protocol. The gel was stained using SimplyBlue™ SafeStain (Invitrogen) and imaged using a Chemidoc XRS+ (BioRad) or transferred onto nitrocellulose membranes using the iBlot® Dry Blotting System (Life Technologies) and iBlot® Western Detection Kit (Life Technologies) according to the manufacturer's protocol. Proteins were detected by blotting with Anti-His [C-term]-HRP antibody diluted 3:5000 in Blok™-PO Blocking Buffer using the SNAP I.d.® Protein Detection System (Millipore) according to the manufacturer's protocol. Blots were treated with Luminata Classico Western HRP Substrate (Millipore) according to the manufacturer's protocol and imaged using chemiluminescent detection on the Molecular Imager® Gel Doc™ XR+ System (Bio-Rad). Quantification of intact protein was determined by densitometry using ImageLab (BioRad). For all analysis methods the relative concentration of the polypeptide at each time point (if detected) was plotted overtime and fit to an exponential curve to calculate the intact half-life.
# Specifically, the t=0 (enzyme-free control) and t=2 min samples from the SGF digest were analyzed for intact protein as described by chip electrophoresis, SDS-PAGE, western blot, and/or LC-MS/MS. Relative quantities of polypeptides at each time point were determined and the percentage of intact protein remaining at t=2 was determined. Intact half-life values determined using this method are reported as greater or less than 2 min to indicate more or less than 50% of the protein remained intact at t=2 min, respectively.
row,Molecule,SGF Half-life (t½) [s]
1,B1,24
2,B2,60
3,B3,36
4,B4,30
5,B5,12
6,B6,12
7,B7,72
8,B8,<600
9,B9,30
10,B10,12
11,B11,18
12,B12,24
13,B13,12
14,B14,18
15,B15,12

# Same assay, conditions: purified proteins, chip electrophoresis
row,Molecule,Half-life [s]
1,B9,30
2,B10,12
3,B11,18
4,B12,24
5,B13,12

# Assay: Thermostability, temperature of aggregation (ProteoStat Thermal Shift)
# Format: physicochemical
# Set-up: key to Tagg: temperature in °C
# Conditions: Table E31D; heated 25° C. to 95° C.
# Method: The thermostability of proteins in a buffer cocktail of Citric Acid and Dibasic Sodium Phosphate over a pH range of 2.8 to 7.1 (preparation described above in Table E31B) was determined using the ProteoStat® Thermal Shift Stability Kit (Enzo Life Sciences) according to the manufacturer's standard protocol. Briefly, protein solutions (˜10 mg/ml) containing 1× ProteoStat TS Detection Reagent were heated from 25° C. to 95° C. at a rate of 0.5° C. per 30 sec using a real-time PCR (rtPCR) thermocycler (BioRad) equipped with a plate reader (SynergyMx, Biotek) while monitoring the fluorescence with a Texas Red filter.
row,Molecule,Tagg (pH 7.1)
1,B2,64
2,B3,>95
3,B4,>95
4,B5,46
5,B6,48
6,B11,95
7,B12,54.5

# Same assay, conditions: pH 2.8
row,Molecule,Tagg
1,B10,95

# Same assay, conditions: pH 3.7
row,Molecule,Tagg
1,B10,95

# Same assay, conditions: pH 4.3
row,Molecule,Tagg
1,B10,95^

# Same assay, conditions: pH 6.5
row,Molecule,Tagg
1,B10,45.5

# Same assay, conditions: pH 7.1
row,Molecule,Tagg
1,B1,>95
2,B10,48.5

# Assay: SGF digest of 168 nutritive polypeptide library, intact protein by LC-MS/MS
# Format: in vitro ADME
# Conditions: 168 nutritive polypeptide library SGF digest, LC-MS/MS spectral counts
# Outline: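 Spectral-count ratios (10 min vs 0 min, peak gel fraction plus neighbours) give the percent of each protein left intact after SGF digestion of a pooled, IMAC-purified 168-member recombinant library. Samples were gel-fractionated, trypsinised in-gel and run on Orbitrap nanoLC-MS/MS, requiring two unique peptides at 1% FDR.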
row,Molecule,% Intact Protein at 10 min [%]
1,B8,0
2,B9,24.3
3,B10,1.1
4,B11,0
5,B12,3.3
6,B13,12

# Same assay, conditions: 168 nutritive polypeptide library, LC-MS/MS
row,Molecule,% Remaining at 10 min [%]
1,B9,24.3
2,B10,1.1
3,B11,0
4,B12,3.3
5,B13,12
